Measurements as given in paper PMC12996321.

B1: Sdna3 DNA+ 50 bp (dsDNA)
DNA 1: AGCACCGCTTAAACGCACGTACGCTTTGTTCCCCGCGTTTTAACCGCCAA
DNA 2: TTGGCGGTTAAAACGCGGGGAACAAAGCGTACGTGCGTTTAAGCGGTGCT

How the values were obtained:
[1] = target: recombinant human histone octamer assembled into mononucleosomes on 250 bp 601 Widom DNA (human) (UniProt Q71DI3); test: single-molecule TIRF colocalisation
Halo-Sox2 = Halo-Sox2 (UniProt P48432 1-319); test: single-molecule TIRF
Chain of Halo-Sox2 (P48432 whole entry): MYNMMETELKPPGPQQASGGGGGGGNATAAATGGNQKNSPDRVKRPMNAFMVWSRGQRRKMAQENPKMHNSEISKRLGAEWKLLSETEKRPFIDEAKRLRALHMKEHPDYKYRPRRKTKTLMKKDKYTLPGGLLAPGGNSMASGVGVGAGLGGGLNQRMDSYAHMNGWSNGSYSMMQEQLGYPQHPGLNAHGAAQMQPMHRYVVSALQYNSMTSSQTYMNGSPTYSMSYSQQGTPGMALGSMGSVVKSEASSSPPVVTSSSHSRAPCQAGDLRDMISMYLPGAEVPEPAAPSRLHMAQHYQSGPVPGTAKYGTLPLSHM

Row | Molecule | residence time tau2 on MN-6 (state attributed to TF-histone interactions) [1] | binding result (Halo-Sox2)
1 | Halo-Sox2 (recombinant, JF549-labelled) (from UniProt P48432 1-319) (natural protein) | 3.4 s | –
2 | B1 | – | binds
